Measured values reported in patent publication US20240109955A1.
Like-named read-outs stand apart in the source and are kept apart here.

How the values were obtained:
Test in all cases: cell-based or functional assay
[1] = molecular target: SARS-CoV-2 Omicron BA.2.75.2 spike protein (SARS-CoV-2)
[2] = molecular target: SARS-CoV-2 Omicron BA.4/5 spike protein (SARS-CoV-2)
[3] = molecular target: SARS-CoV-2 Omicron BQ.1 spike protein (SARS-CoV-2)
[4] = molecular target: SARS-CoV-2 Omicron BQ.1.1 spike protein (SARS-CoV-2)
[5] = molecular target: SARS-CoV-2 Omicron XBB spike protein (SARS-CoV-2)
[6] = molecular target: SARS-CoV-2 spike (S) protein, Omicron sublineage BF.7 (SARS-CoV-2)
[7] = molecular target: SARS-CoV-2 spike (S) protein, Omicron sublineage XBB1.5 (SARS-CoV-2)
[8] = molecular target: SARS-CoV-2 spike (S) protein, Omicron sublineage XBB (SARS-CoV-2)
[9] = molecular target: SARS-CoV-2 spike (S) protein, Omicron sublineage BQ.1 (SARS-CoV-2)
[10] = molecular target: SARS-CoV-2 spike (S) protein, Omicron sublineage BQ.1.1 (SARS-CoV-2)
[11] = molecular target: SARS-CoV-2 spike (S) protein, Omicron sublineage XBB (SARS-CoV-2); remark: listed apart in the source

B1: MX1046 (bispecific antibody)
chain 1: EIVLTQSPGTLSLSPGETATLSCRASQSFSSDLAWYQQKPGQAPRLLIYGASSRATGIPDRFSGSGSGTDFTLTISRLEPADFAVYYCQQYGSSPPVTFGGGTKVEIKGGSSGDTVMTQSPLSLPVTPGEPASISCRSSQSLLNSNGYNYLDWYVQKPGQSPQLLIYLGSNRASGVPDRFSGSGSGTDFTLKISRVEAEDVGVYYCMQPLQTPLFTFGPGTKVEIKGGGGSGGSGSGGGGSASGSGQVTLRESGPALVKPTQTLTLTCTFSGFSLSTRGVCVSWIRQPPGKALEWLAFIDWDDDKYYNTSLKTRLTISKDTSKNQVVLTMTNVHPVDTATYYCARISSHHGSSWCTTFDYWGQGALVTVSAGGSSGEVQLVESGGGLIQPGGSLRLSCAASGVIVSYNYMNWVRQAPGKGLEWVSVIYSGGSTFYADSVRGRFTISRDNSKNTLYLQMNSLRAEDTAVYYCARDLGPAGAFDIWGLGTMVTVSSASGGSGDKTHTCPPCPAPELLGGPSVFLFPPKPKDTLMISRTPEVTCVVVDVSHEDPEVKFNWYVDGVEVHNAKTKPREEQYNSYVVSVLTVLHQDWLNGKEYKCKVSNKALPAPIEKTISKAKGQPREPQVYTLPPCRDELTKNQVSLWCLVKGFYPSDIAVEWESNGQPENNYKTTPPVLDSDGSFFKKLTVDKSRWQQGNVFSCSVLHEALHSHYTQKSLSLSPG
chain 2: DTVMTQSPLSLPVTPGEPASISCRSSQSLLNSNGYNYLDWYVQKPGQSPQLLIYLGSNRASGVPDRFSGSGSGTDFTLKISRVEAEDVGVYYCMQPLQTPLFTFGPGTKVEIKGGSSGEIVLTQSPGTLSLSPGETATLSCRASQSFSSDLAWYQQKPGQAPRLLIYGASSRATGIPDRFSGSGSGTDFTLTISRLEPADFAVYYCQQYGSSPPVTFGGGTKVEIKGGGGSGGSGSGGGGSASGSGEVQLVESGGGLIQPGGSLRLSCAASGVIVSYNYMNWVRQAPGKGLEWVSVIYSGGSTFYADSVRGRFTISRDNSKNTLYLQMNSLRAEDTAVYYCARDLGPAGAFDIWGLGTMVTVSSGGSSGQVTLRESGPALVKPTQTLTLTCTFSGFSLSTRGVCVSWIRQPPGKALEWLAFIDWDDDKYYNTSLKTRLTISKDTSKNQVVLTMTNVHPVDTATYYCARISSHHGSSWCTTFDYWGQGALVTVSAASGGSGDKTHTCPPCPAPELLGGPSVFLFPPKPKDTLMISRTPEVTCVVVDVSHEDPEVKFNWYVDGVEVHNAKTKPREEQYNSYVVSVLTVLHQDWLNGKEYKCKVSNKALPAPIEKTISKAKGQPREPQVCTLPPSRDELTKNQVSLSCAVKGFYPSDIAVEWESNGQPENNYKTTPPVLDSDGSFFLVSKLTVDKSRWQQGNVFSCSVLHEALHSHYTQKSLSLSPG
Q: B1 was tested. Which IC50, pseudovirus neutralization [1] did it give?
A: 0.36 ng/mL

Q: What about the IC80, pseudovirus neutralization [1] of the same binder?
A: 1.29 ng/mL

Q: And the IC50, pseudovirus neutralization [2]?
A: 0.9 ng/mL

Q: And the IC80, pseudovirus neutralization [2]?
A: 1.56 ng/mL

Q: And the IC50, pseudovirus neutralization [3]?
A: 1.66 ng/mL

Q: And the IC80, pseudovirus neutralization [3]?
A: 4.08 ng/mL

Q: And the IC50, pseudovirus neutralization [4]?
A: 1.23 ng/mL

Q: What about the IC80, pseudovirus neutralization [4] of the same binder?
A: 3.97 ng/mL

Q: And the IC50, pseudovirus neutralization [5]?
A: 1.26 ng/mL

Q: And the IC80, pseudovirus neutralization [5]?
A: 2.88 ng/mL

B2: A46 + E12 + B8 (protein)
VH 1: QVQLVESGGGVVQPGRSLRLSCAASGFTLSSYGMHWVRQAPGKGLEWVAVISYDGSNKYYVDSVKGRFTISRDNSKNTLYLQMNSLRAEDTAVYYCRWAYWELLPDYYYGMDVWGQGTTVTVSS
VL 1: QTVVTQEPSFSVSPGGTVTLTCGLSSGSVSTAYFPSWYQQTPGQAPRTLIYGTNTRSSGVPDRFSGSILGNKAALTITGAQADDESDYYCVLYMGRGIVVFGGGTKLTVL
VH 2: EVQLVESGGGLIQPGGSLRLSCAASGVIVSYNYMNWVRQAPGKGLEWVSVIYSGGSTFYADSVRGRFTISRDNSKNTLYLQMNSLRAEDTAVYYCARDLGPAGAFDIWGLGTMVTVSS
VL 2: EIVLTQSPGTLSLSPGETATLSCRASQSFSSDLAWYQQKPGQAPRLLIYGASSRATGIPDRFSGSGSGTDFTLTISRLEPADFAVYYCQQYGSSPPVTFGGGTKVEIK
VH 3: EVQLVESGGALIQPGGSLRLSCAASGIIVSANYMSWVRQAPGKGLEWVSVIYSGGSTFYADSVKGRFTISRDNSKNTLYLEMNSLRAEDTAVYYCARDAPILGVSDWGQGTLVTVSS
VL 3: EIVMTQSPAILSVSPGERATLSCRASQSVAINLAWYQQKPGQAPRLLIYAASSRATGIPGRFSGSGSETNFTLTISSLQSGDFAVYYCQQYITWPPSYTFGQGTKLEIK
Q: For B2, which IC50, pseudovirus neutralization [6] is on record?
A: 12.9 nM

Q: And the IC80, pseudovirus neutralization [6]?
A: 33.8 nM

Q: What about the IC50, pseudovirus neutralization [7] of the same binder?
A: 12 nM

Q: What about the IC80, pseudovirus neutralization [7] of the same binder?
A: 33 nM

B3: A19-46 + E8 + B8 (protein)
VH 1: QVQLVESGGGVVQPGRSLRLSCAASGFTLSSYGMHWVRQAPGKGLEWVAVISYDGSNKYYVDSVKGRFTISRDNSKNTLYLQMNSLRAEDTAVYYCRWAYWELLPDYYYGMDVWGQGTTVTVSS
VL 1: QTVVTQEPSFSVSPGGTVTLTCGLSSGSVSTAYFPSWYQQTPGQAPRTLIYGTNTRSSGVPDRFSGSILGNKAALTITGAQADDESDYYCVLYMGRGIVVFGGGTKLTVL
VH 2: QVTLRESGPALVKPTQTLTLTCTFSGFSLSTRGVCVSWIRQPPGKALEWLAFIDWDDDKYYNTSLKTRLTISKDTSKNQVVLTMTNVHPVDTATYYCARISSHHGSSWCTTFDYWGQGALVTVSA
VL 2: DTVMTQSPLSLPVTPGEPASISCRSSQSLLNSNGYNYLDWYVQKPGQSPQLLIYLGSNRASGVPDRFSGSGSGTDFTLKISRVEAEDVGVYYCMQPLQTPLFTFGPGTKVEIK
VH 3: EVQLVESGGALIQPGGSLRLSCAASGIIVSANYMSWVRQAPGKGLEWVSVIYSGGSTFYADSVKGRFTISRDNSKNTLYLEMNSLRAEDTAVYYCARDAPILGVSDWGQGTLVTVSS
VL 3: EIVMTQSPAILSVSPGERATLSCRASQSVAINLAWYQQKPGQAPRLLIYAASSRATGIPGRFSGSGSETNFTLTISSLQSGDFAVYYCQQYITWPPSYTFGQGTKLEIK
Q: With B3 as the binder, how does the IC50, pseudovirus neutralization [8] read?
A: 11.3 nM

Q: What about the IC80, pseudovirus neutralization [8] of the same binder?
A: 17.7 nM

Q: What about the IC50, pseudovirus neutralization [9] of the same binder?
A: 16 ng/mL

Q: And the IC80, pseudovirus neutralization [9]?
A: 52.2 ng/mL

Q: What about the IC50, pseudovirus neutralization [10] of the same binder?
A: 11.1 ng/mL

Q: And the IC80, pseudovirus neutralization [10]?
A: 17 ng/mL

Q: What about the IC50, pseudovirus neutralization [11] of the same binder?
A: 11.3 ng/mL

Q: And the IC80, pseudovirus neutralization [11]?
A: 17.7 ng/mL

B4: A46 + E12 + E8 (protein)
VH 1: QVQLVESGGGVVQPGRSLRLSCAASGFTLSSYGMHWVRQAPGKGLEWVAVISYDGSNKYYVDSVKGRFTISRDNSKNTLYLQMNSLRAEDTAVYYCRWAYWELLPDYYYGMDVWGQGTTVTVSS
VL 1: QTVVTQEPSFSVSPGGTVTLTCGLSSGSVSTAYFPSWYQQTPGQAPRTLIYGTNTRSSGVPDRFSGSILGNKAALTITGAQADDESDYYCVLYMGRGIVVFGGGTKLTVL
VH 2: EVQLVESGGGLIQPGGSLRLSCAASGVIVSYNYMNWVRQAPGKGLEWVSVIYSGGSTFYADSVRGRFTISRDNSKNTLYLQMNSLRAEDTAVYYCARDLGPAGAFDIWGLGTMVTVSS
VL 2: EIVLTQSPGTLSLSPGETATLSCRASQSFSSDLAWYQQKPGQAPRLLIYGASSRATGIPDRFSGSGSGTDFTLTISRLEPADFAVYYCQQYGSSPPVTFGGGTKVEIK
VH 3: QVTLRESGPALVKPTQTLTLTCTFSGFSLSTRGVCVSWIRQPPGKALEWLAFIDWDDDKYYNTSLKTRLTISKDTSKNQVVLTMTNVHPVDTATYYCARISSHHGSSWCTTFDYWGQGALVTVSA
VL 3: DTVMTQSPLSLPVTPGEPASISCRSSQSLLNSNGYNYLDWYVQKPGQSPQLLIYLGSNRASGVPDRFSGSGSGTDFTLKISRVEAEDVGVYYCMQPLQTPLFTFGPGTKVEIK
Q: With B4 as the binder, how does the IC50, pseudovirus neutralization [6] read?
A: 12 nM

Q: And the IC80, pseudovirus neutralization [6]?
A: 30.6 nM

Q: And the IC50, pseudovirus neutralization [7]?
A: 37.8 nM

Q: What about the IC80, pseudovirus neutralization [7] of the same binder?
A: 96.7 nM
